The values below come from publication PMC9918737.

The target of test [1] is ubH2B mono-nucleosome (H2B mono-ubiquitinated at lysine 120) (UniProt P0C0S8).
Test [2] deals with unmodified H2B mono-nucleosome (UniProt P0C0S8).
Test [3] concerns the target ubH2B mono-nucleosome (H2B mono-ubiquitinated at lysine 120) (UniProt P0C0S8). Kind of test: single-molecule magnetic tweezers (force-jump); 409-bp nucleosome tethered between coverslip and bead, 83 nM FACT in the flow cell, force jumps between 0.1 pN and 11 pN (H2B-nucleosome) or 6 pN (ubH2B-nucleosome), Kd from the ratio of free to FACT-bound states, 25 °C.

In general, Kd refers to the constant that tells how readily two partners part at equilibrium. On to “recombinant FACT complex (Flag-SPT16 and His6-SSRP1) (from UniProt Q9Y5B9 1-1047; Q08945 1-709)”, for which, in test [1], the rupture force of the inner DNA wrap of ubH2B-nucleosome in the presence of FACT (magnetic tweezers) stood at 20 pN and the rupture force of the outer DNA wrap of ubH2B-nucleosome in the presence of FACT (magnetic tweezers) came to 10 pN. In addition, the tension at which the H2B-nucleosome is completely disrupted in the presence of FACT (magnetic tweezers, repeated stretching) in test [2] was less than 10 pN. In addition, the Kd in test [3] is 8 nM.
